Columns and labels:
htau40 = htau40 (Homo sapiens, UniProt P10636); test: Biacore X100 SPR of anti-tau mAbs on immobilised htau40; type: binding
Description: For anti-tau mAb SPR measurements, htau40 was conjugated to the surface of a CM5 sensor chip using amine coupling as explained previously. Briefly, 2 μg/mL htau40 in 10 mM Sodium acetate buffer (pH 4.0) was passed over the activated chip surface (EDC/NHS) in flow cell 2 for a period for 45 s followed by blocking with 1 M ethanolamine-HCl PH 8.5. Flow cell 1 was set up as reference control and blocked simultaneously. Final immobilisation level of htau40 (Rmax) was approximately 250 RU. Following a minimum of three start-up cycles, increasing concentrations (0.78 nM-25 nM) of the mAb in HBS-EP+ buffer was added at a rate of 30 μL/min to the chip. The mAb was added for a 120 s association period and 600 s dissociation period followed by a regeneration cycle of 30 s injection of glycine buffer pH 1.5 in between each cycle. Binding responses were analysed in Biacore X100 evaluation software and data fitted to a 1:1 binding model to obtain kinetic and affinity characterisation.
For anti-tau mAb SPR measurements (Biacore X100™) and epitope mapping, the same methodologies described above (see Example 16) were followed. Kinetic rates and equilibrium binding constants of additional anti-tau mAbs and the regions recognised on hT40 are given in the Table 25 below

hT40 = hT40 (Homo sapiens, UniProt P10636); test: Biacore X100 SPR, scAb captured via anti-HuCk, hT40 as analyte; type: binding
Description: Surface plasmon resonance (SPR) is widely regarded as the gold standard for real time measurement of protein-protein interactions such as antibody binding. All SPR experiments were carried out using a Biacore X100 machine and HBS EP+ running buffer (GE Healthcare). A ‘capture’ method was followed for affinity measurements, where an anti-human constant kappa chain (HuCk) antibody was conjugated to the surface of a CM5 sensor chip using an amine coupling kit and scAb molecules were immobilised via their HuCk domain. Amine coupling is a very common approach for immobilising the ligand to the chip surface. […] The capture antibody was diluted 1/100 in 10 mM Sodium acetate buffer pH 5.0 and passed over the activated chip surface for a period of at least 420 s. Final ligand immobilisation levels over 12,000 RU were deemed to be satisfactory.
Following immobilisation, the level of each scAb to be captured was identified using the standard SPR equation with a theoretical RMax of 100 RU. Analyte MW refers to the molecular weight of hT40 or dGA/dGAE molecules, while ligand MW refers to the molecular weight of the scAbs tested. RL is the desired capture level and S refers to the stoichiometric ratio:
The scAb to be tested was added only to flow cell 2 so that flow cell 1 could act as a control to subtract any interaction with the analyte and the chip surface. Both single and multi-cycle runs were utilised using wizards developed in the Biacore X100 control software which are both accepted methods of kinetic analysis (Karlsson, R., et al. Analyzing a kinetic titration series using affinity biosensors (2006) Analytical Biochemistry 349:136-47). The multi-cycle protocol was as follows-Three start-up cycles composed of an initial capture, to the desired level, of the scAb to be tested was performed followed by a 30 s injection of glycine buffer pH 2.0 after each cycle to regenerate the chip surface. […] Following three start-up cycles increasing concentrations (0.15625 nM-100 nM) of the target to be tested were added to the chip surface after the desired scAb capture. The target was added for a 120 s association period and 420 s dissociation period followed by another regeneration, 30 s injection of glycine buffer pH 2.0 in between each cycle.
The single cycle kinetics protocol was similar and utilised the same level of scAb capture. Three start-up cycles were used followed by 5 increasing concentrations of the analyte (6.25 nM-100 nM) for an association period of 120 s followed by a dissociation period of 420 s for each concentration. In single cycle kinetics the regeneration step was performed only after the final analyte concentration was added. Binding responses were analysed in Biacore X100 evaluation software and data fitted to a 1:1 binding model to obtain kinetic and affinity characterisation.

[1] = mAb, Table 27, immobilised hT40
[2] = '3a' and '3b' scAbs, Table 25, hT40
[3] = newly converted mAbs, Table 25 (Example 28), hT40

Sequence of hT40 (P10636 1-441 isoform P10636-8): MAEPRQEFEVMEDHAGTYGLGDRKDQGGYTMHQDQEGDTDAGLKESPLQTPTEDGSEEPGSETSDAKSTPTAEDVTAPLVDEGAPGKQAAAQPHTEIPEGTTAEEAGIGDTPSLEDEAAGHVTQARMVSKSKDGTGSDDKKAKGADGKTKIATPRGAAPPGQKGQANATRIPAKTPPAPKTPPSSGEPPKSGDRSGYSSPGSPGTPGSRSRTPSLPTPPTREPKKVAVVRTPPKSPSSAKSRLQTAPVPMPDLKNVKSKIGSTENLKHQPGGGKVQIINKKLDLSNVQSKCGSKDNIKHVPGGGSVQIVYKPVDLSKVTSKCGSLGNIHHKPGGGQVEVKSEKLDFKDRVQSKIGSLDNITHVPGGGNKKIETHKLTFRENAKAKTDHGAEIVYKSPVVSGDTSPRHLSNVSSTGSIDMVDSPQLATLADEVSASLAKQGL
Sequence of htau40 (P10636 1-441 isoform P10636-8): as above

B1: CE3: anti-tau clone, SEQ ID NO: 367 (protein)
scFv: QVRLQESGPSLVKPSQTLSVTCTVSGFSLISNAVGWVRQAPGKVPESLAGCSSDGKCYYNSALKSRLDITRDTSKNQISLSLSSVTTDDAAVYYCTRGYYPVYGYDYLGTIDYWGPGLLVTVSSEGKSSGASGESKVDDQAVLTQPSSVSGSLGQRVSITCSGSSSNVGRNDVAWFQQLPGSGLRTIIYGTTSRPSGIPDRFSGSKSGVTATLTIDSLQAEDEADYFCASGDSSAINDIFGSGTRLTVLG
modifications: CE3 amino acid sequence
Which results are given for B1?
ka (htau40; [1]): 103000 M⁻¹ s⁻¹; kd (htau40; [1]): 0.001718 s⁻¹; ka (hT40; scAb, Table 23, T441 (hT40)): 174500 M⁻¹ s⁻¹; kd (hT40; scAb, Table 23, T441 (hT40)): 0.000662 s⁻¹

B2: 3aA6: anti-tau clone, sequence in b345 (protein)
scFv: QVRLQESGSSLVKPSQTLSLVCTVSGFPLTSNAVGWVRQAPGKAPEWLGLIDIDGDTAYNPALESRLSITRDTSKSQVSLSLSSVAIEDTAVYYCARHYDKWGYADSIDYWGPGLLVTVSSEGKSSGASGESKVDDQALLTQPSSVFGSLGQRVSITCSGSSSNVGYGDYVGWYQQVPGSAPKLLIYDATTRASGVPDRFSGSRSGNTATLTISSLQAEDEADYYCASYQNERSGVFGSGTRLTVLG
modifications: 3aA6 amino acid sequence
For B2, which ka (hT40; [2]) is on record?
The ka was 19000 M⁻¹ s⁻¹.

And the kd (hT40; [2])?
The kd was 0.0188 s⁻¹.

B3: MD9/MoD9: anti-tau clone, SEQ ID NO: 373 (protein)
scFv: QVRLQESGPSLVKSSQTLSLTCTVSGFSLTRESIAWVRQAPGKVPEWLGGVGIDGTSYYSPALKSRLSITRDTSKSQASLSLSSVATEDTAMYYCARNYIDFEYWGPGLLVTVSSEGKSSGASGESKVDDQAVLTQLSSVSGSLGQRISITCSGSSSNVGIYDVSWFQQLPGSGLRTVIYGTNNRPSGVPDRFSGSRSGNTATLTISSLQSEDEAIYYCAAGDSSTIAVFGSGTRLTVLG
modifications: MD9 amino acid sequence
Which ka (htau40; [3]) does the source give for B3 here?
Its ka is 66200 M⁻¹ s⁻¹.

What about the kd (htau40; [3]) of the same molecule?
The kd was 0.001462 s⁻¹.

B4: 3bD11 (protein)
scFv: RVRLQGSGPSLVKPSQTLSLTCTVSGFSFDSYYVGWVRQAPGKALEWLGNIYSTGRAFYNPALKSRLSITRDTSKSQVSLSVSSVTIEDTALYYCVRGSYYHGGGNGMVDFFDYWSPGLLVTVSSEGKSSGASGESKVDDQVVRTQPSSVSGSLGQRVSITCSGSSSNVGYGNYVGWFQQVPGSAPKLLIYAATSRASGVPDRFSGSRSGNTATLTIDSLQAEDEADYYCSSYQRGNTGVFGSGTRLTVLG
For B4, which ka (htau40; [3]) is on record?
Its ka is 2.671e+06 M⁻¹ s⁻¹.

And the kd (htau40; [3])?
Its kd is 0.003979 s⁻¹.

B5: 3aH6: anti-tau clone, SEQ ID NO: 423 (protein)
scFv: QVQLQESGPSLVKPSQTLSLTCTVSGFSLSSNGVGWVRQAPGKVPEWLGDISSVGKKYANPALKSRLSFTRDTSKSQVSLSLSSVTTEDTAVYYCVKCRDGGVTYGYDIDYWGPGLLVTASSEGKSSGASGESKVDDQAVVTQPSSVSGSLGQSVSITCSGSSGNVGYGDYVSWFQQFHGSAPKLLIYGATNLASGVPARFSGSRSGNTATLTISSLHAEDEADYYCASYDSSSGGVFGSGTRLTVLG
modifications: 3aH6 amino acid sequence
What does the source list for B5?
ka (htau40; [3]): 3.128e+06 M⁻¹ s⁻¹; kd (htau40; [3]): 0.0001522 s⁻¹; Kd (htau40; newly converted mAbs, Table 25 (Example 28), read-out: kD (M) for hT40 binding): 4.9e-11 M; ka (hT40; [2]): 2.757e+06 M⁻¹ s⁻¹; kd (hT40; [2]): 0.009868 s⁻¹

B6: 3bF4: anti-tau clone, SEQ ID NO: 421 (protein)
scFv: QVQLQESGPSLVKPSQTLSLTCTVSGFSLSSNGVGWVRQAPGKVPEWLGDISSVGKKYANPALKSRLSFTRDTSKSQVSLSLSSVTTEDTAVYYCVKCRDGGVTYGYDIDYWGPGLLVTVSSEGKSSGASGESKVDDQAVLTQPSSVSKSTGQTVSITCSGSSSNVGLRNYVTWFQQVPGSAPKLLIYGATSRASGIPDRFSGSRSGNTATLIISSLQAEDEADYYCASADTNDGGVFGSGTRLTVLG
modifications: 3bF4 amino acid sequence
For B6, which ka (hT40; [2]) is on record?
Its ka is 109300 M⁻¹ s⁻¹.

What about the kd (hT40; [2]) of the same molecule?
Its kd is 0.01532 s⁻¹.

B7: 3bG4: anti-tau clone, SEQ ID NO: 425 (protein)
scFv: QVQLQESGPSLVKPSQTLSLTCTISGFSLISNGVGWVRQAPGKVPEWVGDIASSGKAYSNPALKSRLSITRDTSKSQVSLSLRSVTTEDTAVYYCVRCRDGGVTYGYDIDYWGPGLLVTVSSEGKSSGASGESKVDDQAVLTQPSSVSKSLGQSVSITCSGSTSNVGSGNDVSWFQQVPGSAPKLLFYGATNRASGVPDRFSGSRSGNTATLTITSLQAEDEADYYCGSYDSNSGGIFGSGTRLTVLG
modifications: 3bG4 amino acid sequence
How did the ka (htau40; [3]) turn out when B7 was run?
The ka was 4.54e+06 M⁻¹ s⁻¹.

What about the kd (htau40; [3]) of the same molecule?
The kd was 0.0002964 s⁻¹.

And the ka (hT40; [2])?
Its ka is 6.669e+06 M⁻¹ s⁻¹.

And the kd (hT40; [2])?
The kd was 0.05966 s⁻¹.

B8: 3aB7: anti-tau clone, SEQ ID NO: 420 (protein)
scFv: QVQLQESGPSLVKPSQTLSLTCTVSGFSLTSNGVGWVRQAPGKVPEWVGDKSSAGKTYGNPALKSRLSITRDTSKSQVSLSLSSVTTEDTAVYYCVRCRDGGVTYGYDVDYWGPGLLVTVSSEGKSSGASGESKVDDQAVLTQPSSVSKSLGQSVSITCSGSSSNVGYGDVVSWFQQFPGSAPKLLIFGTTTRASGVPDRFSGSRSGNAATLTINSLQAEDEADYYCASFDSDSGGIAGSGTRLTVLG
modifications: 3aB7 amino acid sequence
With B8 as the molecule, how does the ka (hT40; [2]) read?
Its ka is 207200 M⁻¹ s⁻¹.

What about the kd (hT40; [2]) of the same molecule?
The kd was 0.01435 s⁻¹.

B9: 3aG3: anti-tau clone, SEQ ID NO: 424 (protein)
scFv: QVQLQESGPSLVKPSQTLSLTCTVSGFSLSSNGVGWVRQAPGKVPEWVGDISSSGKAYANPALKSRLSITRDTAKTQVFLSLSSVTTEDTAVYYCVRCRDGGVSYGYDIDYWGPGLLVTVSSEGKSSGASGESKVDDQAVLTQPPSVSGSPGQRVSITCSGSSSNIGGGNYLSWFQQVPGSAPKLLIYGATSRASGVPDRFSGSRSGNTATLTISSLQAEDEADYYCASFDTSSGGIFGAGTRLTVLG
modifications: 3aG3 amino acid sequence
For B9, which ka (htau40; [3]) is on record?
The ka was 1.532e+07 M⁻¹ s⁻¹.

And the kd (htau40; [3])?
The kd was 0.004751 s⁻¹.

And the ka (hT40; [2])?
Its ka is 62940 M⁻¹ s⁻¹.

What about the kd (hT40; [2]) of the same molecule?
The kd was 0.0003869 s⁻¹.

— patent publication US12624096B2, “Anti-tau antibodies and methods of use thereof” (GTInvent Limited, priority 2020, dated 2026)
